Experimental findings from patent publication US12312417B2, “Binding proteins 1” (Nucleus Therapeutics Pty. Ltd., priority 2017, dated 2025) are described below.

What all share (assay type): cell-based
For experiment [1], the system named is HDR-proficient DLD1 cells. The experiment in a line: Cell death in HDR-proficient cells, di-scFv with PARP inhibitor. The following applies: 5 nM olaparib, 10 μM di-scFv, or both. Here is the method: Homology-directed repair (HDR) deficient BRCA2-DLD1 cells and PTEN-U251 cells were treated with control, 5 nM olaparib, 10 μM di-scFv, or 10 μM di-scFv+5 nM olaparib. Surviving fraction was determined by colony formation assay.
It was then determined whether the combination of di-scFv and olaparib is simply universally cytotoxic, regardless of DNA repair status. To evaluate this possibility, HDR-proficient DLD1 cells were treated with the above regimen to confirm selectivity of combination therapy to HDR-deficient malignant cells.

Experiment [2] relates to DLD1 colon cancer cells. The experiment can be described thus: Alkaline phosphatase-based survey of nuclear penetration. As to conditions: cells treated for one hour; right shift of histogram peak. On the procedure:
DLD1 colon cancer cells were treated with control media or each of the indicated variants for one hour. Cells were then washed, fixed, blocked with 1% BSA-TBST, and then probed with protein L for one hour. Cells were then washed and incubated with an anti-protein L primary antibody for one hour. After another round of washing cells were incubated with an alkaline phosphatase-conjugated secondary antibody for one hour. Finally, cells were washed and signal was developed by addition of NBT/BCIP. Dark stain indicates location of the variants.
Raw integrated density values reflecting nuclear alkaline phosphatase staining in the DLD1 cells from the experiment in FIG. 3 were obtained by analysis using ImageJ Boxplots of distributions of values are presented for each variant in FIG. 4.
Histogram plots of cell counts versus nuclear staining intensity (represented as reciprocal intensity in arbitrary units) are shown in FIG. 5.

For experiment [3], the system named is PTEN-deficient U251 human glioma cells. The experiment can be described thus: Phospho-53BP1 foci accumulation (DNA damage). As to conditions: PTEN-deficient U251; twenty-four hours; vs control media. On the procedure: A matched pair of PTEN-proficient and deficient U251 human glioma cells were treated with control media or media containing Variant 10, 11, 13, 15, or 16 for twenty-four hours. Cells were then washed, fixed, blocked, and then probed with an anti-phospho-53BP1 antibody overnight. Cells were then washed and incubated with an AlexaFluor555-conjugated secondary antibody. Finally, cells were washed, counterstained with DAPI, and visualized under a fluorescence microscope. Images were saved and evaluated by CellProfiler to determine mean number of phospho-53BP1 foci per cell.
A matched pair of BRCA2-proficient and deficient DLD1 colon cancer cells and PTEN-proficient and deficient U251 human glioma cells were treated with control media or media containing 10 μM di-scFv variant 13 (SEQ ID NO: 41), 5 nM olaparib, or combination treatment.

Experiment [4] relates to BRCA2-deficient DLD1 colon cancer cells. The experiment can be described thus: Cell viability by Trypan blue exclusion assay. As to conditions: 7 days later. Here is the method: (§1) Next, a matched pair of BRCA2-proficient and deficient DLD1 colon cancer cells was treated with control media or media containing Variants 10, 13, 15, or 16. Cell viability was determined 7 days later by Trypan blue exclusion assay and by direct visualization of cell morphology by light microscopy. […] Representative light microscope images shown the changes in morphology in the BRCA2-deficient cancer cells treated with the variants are shown in FIG. 10, Panel A. Quantitative analysis of the cell survival by Trypan blue exclusion assay is shown in FIG. 10, Panel B.

For experiment [5], the system named is BRCA2-proficient DLD1 colon cancer cells. The experiment can be described thus: Cell viability by Trypan blue exclusion assay. The following applies: 7 days later. Here is the method:
as §1

For experiment [6], the system named is PTEN-deficient U87 human glioma cells. The experiment in a line: Cell viability by Trypan blue exclusion assay. The following applies: 7 days after treatment; relative to control treated cells. Here is the method: Cell viability of PTEN-deficient U87 human glioma cells was also assessed following treatment with control media or media containing Variants 10, 13, 15, or 16. Cell viability was determined 7 days after treatment using Trypan blue exclusion assay and by direct visualization of cell morphology by light microscopy.

Take `O=C(c1cc(Cc2n[nH]c(=O)c3ccccc23)ccc1F)N1CCN(C(=O)C2CC2)CC1` [olaparib, reference compound]: in experiment [1], the cell death entry is “remain resistant”.

B1: Variant 12: cell penetrating anti-DNA humanized di-scFv, SEQ ID NO: 40 (protein)
scFv: DIQMTQSPSSLSASVGDRVTITCRASKSVSTSSYSYMHWYQQKPGKAPKLLIKYASYLESGVPSRFSGSGSGTDFTLTISSLQPEDFATYYCQHSREFPWTFGQGTKVEIKRADAAPGGGGSGGGGSGGGGSEVQLVESGGGDVKPGGSLRLSCAASGFTFSNYGMHWVRQAPEKGLEWVSYISSSSSTIYYADSVKGRFTISRDNSKNTLYLQMNSLRAEDTAVYYCARRGLLLDYWGQGTTVTVSSASTKGPSVFPLAPLESSGSDIQMTQSPSSLSASVGDRVTITCRASKSVSTSSYSYMHWYQQKPGKAPKLLIKYASYLESGVPSRFSGSGSGTDFTLTISSLQPEDFATYYCQHSREFPWTFGQGTKVEIKRADAAPGGGGSGGGGSGGGGSEVQLVESGGGDVKPGGSLRLSCAASGFTFSNYGMHWVRQAPEKGLEWVSYISSSSSTIYYADSVKGRFTISRDNSKNTLYLQMNSLRAEDTAVYYCARRGLLLDYWGQGTTVTVSS
modifications: Variant 12
In the case of B1, the “nuclear penetration relative to the yeast prototype (histogram of cell counts versus nuclear staining intensity)” value in experiment [2] was “Most of the variants, other than variants 12 and 14, showed improved nuclear penetration”.

B2: Variant 11: cell penetrating anti-DNA humanized di-scFv, SEQ ID NO: 39 (protein)
scFv: DIQMTQSPSSLSASVGDRVTITCRASKSVSTSSYSYMHWYQQKPGKAPKLLIKYASYLESGVPSRFSGSGSGTDFTLTISSLQPEDFATYYCQHSREFPWTFGQGTKVEIKRADAAPGGGGSGGGGSGGGGSEVQLVESGGGVVQPGGSLRLSCAASGFTFSNYGMHWVRQAPEKGLEWVSYISSSSSTIYYADSVKGRFTISRDNSKNTLYLQMNSLRAEDTAVYYCARRGLLLDYWGQGTTVTVSSASTKGPSVFPLAPLESSGSDIQMTQSPSSLSASVGDRVTITCRASKSVSTSSYSYMHWYQQKPGKAPKLLIKYASYLESGVPSRFSGSGSGTDFTLTISSLQPEDFATYYCQHSREFPWTFGQGTKVEIKRADAAPGGGGSGGGGSGGGGSEVQLVESGGGVVQPGGSLRLSCAASGFTFSNYGMHWVRQAPEKGLEWVSYISSSSSTIYYADSVKGRFTISRDNSKNTLYLQMNSLRAEDTAVYYCARRGLLLDYWGQGTTVTVSS
modifications: Variant 11
As for B2, in experiment [3], the “mean number of phospho-53BP1 foci per cell” value (“mean number … per cell” below) was “increased the number of foci”.

B3: Variant 10: cell penetrating anti-DNA humanized di-scFv, SEQ ID NO: 38 (protein)
scFv: DIQMTQSPSSLSASVGDRVTITCRASKSVSTSSYSYMHWYQQKPGKAPKLLIKYASYLESGVPSRFSGSGSGTDFTLTISSLQPEDFATYYCQHSREFPWTFGQGTKVEIKRADAAPGGGGSGGGGSGGGGSEVQLVESGGGLVQPGGSLRLSCAASGFTFSNYGMHWVRQAPGKGLEWVSYISSSSSTIYYADSVKGRFTISRDNAKNSLYLQMNSLRAEDTAVYYCARRGLLLDYWGQGTTVTVSSASTKGPSVFPLAPLESSGSDIQMTQSPSSLSASVGDRVTITCRASKSVSTSSYSYMHWYQQKPGKAPKLLIKYASYLESGVPSRFSGSGSGTDFTLTISSLQPEDFATYYCQHSREFPWTFGQGTKVEIKRADAAPGGGGSGGGGSGGGGSEVQLVESGGGLVQPGGSLRLSCAASGFTFSNYGMHWVRQAPGKGLEWVSYISSSSSTIYYADSVKGRFTISRDNAKNSLYLQMNSLRAEDTAVYYCARRGLLLDYWGQGTTVTVSS
modifications: Variant 10
As for B3, the “cell viability / toxicity” value is reported as “killed by the variants” in experiment [4] and “not toxic” in experiment [5]. Further, the cell viability result in experiment [6] was “reductions in cell viability”. Besides, in experiment [3], the “mean number … per cell” value is “increased the number of foci”.

B4: Variant 16: cell penetrating anti-DNA humanized di-scFv, SEQ ID NO: 44 (protein)
scFv: DIQMTQSPSSLSASVGDRVTITCRASKTVSTSSYSYMHWYQQKPGKAPKLLIKYASYLESGVPSRFSGSGSGTDFTLTISSLQPEDFATYYCQHSREFPWTFGQGTKVEIKRADAAPGGGGSGGGGSGGGGSEVQLVESGGGLVQPGGSLRLSCAASGFTFSNYGMHWVRQAPGKGLEWVSYISSGSSTIYYADSVKGRFTISRDNAKNSLYLQMNSLRAEDTAVYYCARRGLLLDYWGQGTTVTVSSASTKGPSVFPLAPLESSGSDIQMTQSPSSLSASVGDRVTITCRASKTVSTSSYSYMHWYQQKPGKAPKLLIKYASYLESGVPSRFSGSGSGTDFTLTISSLQPEDFATYYCQHSREFPWTFGQGTKVEIKRADAAPGGGGSGGGGSGGGGSEVQLVESGGGLVQPGGSLRLSCAASGFTFSNYGMHWVRQAPGKGLEWVSYISSGSSTIYYADSVKGRFTISRDNAKNSLYLQMNSLRAEDTAVYYCARRGLLLDYWGQGTTVTVSS
modifications: Variant 16
On to B4, for which the figures for the “cell viability / toxicity” value in experiment [4] and in experiment [5] were “killed by the variants” and “not toxic”, respectively. Also, the cell viability result in experiment [6] is reported as “reductions in cell viability”. The “mean number … per cell” value in experiment [3] was “increased the number of foci”.

B5: Variant 14: cell penetrating anti-DNA humanized di-scFv, SEQ ID NO: 42 (protein)
scFv: DIQMTQSPSSLSASLGDRATITCRASKTVSTSSYSYMHWYQQKPGQPPKLLIKYASYLESGVPSRFSGSGSGTDFTLTISSLQPEDAATYYCQHSREFPWTFGGGTKVEIKRADAAPGGGGSGGGGSGGGGSEVQLVESGGGVVQPGGSLRLSCAASGFTFSNYGMHWVRQAPEKGLEWVSYISSGSSTIYYADSVKGRFTISRDNSKNTLYLQMNSLRAEDTAVYYCARRGLLLDYWGQGTTVTVSSASTKGPSVFPLAPLESSGSDIQMTQSPSSLSASLGDRATITCRASKTVSTSSYSYMHWYQQKPGQPPKLLIKYASYLESGVPSRFSGSGSGTDFTLTISSLQPEDAATYYCQHSREFPWTFGGGTKVEIKRADAAPGGGGSGGGGSGGGGSEVQLVESGGGVVQPGGSLRLSCAASGFTFSNYGMHWVRQAPEKGLEWVSYISSGSSTIYYADSVKGRFTISRDNSKNTLYLQMNSLRAEDTAVYYCARRGLLLDYWGQGTTVTVSS
modifications: Variant 14
Take B5: in experiment [2], the “nuclear penetration relative to the yeast prototype (histogram of cell counts versus nuclear staining intensity)” value is “Most of the variants, other than variants 12 and 14, showed improved nuclear penetration”.

B6: Variant 15: cell penetrating anti-DNA humanized di-scFv, SEQ ID NO: 43 (protein)
scFv: DIQMTQSPSSLSASLGDRATITCRASKTVSTSSYSYMHWYQQKPGQPPKLLIKYASYLESGVPSRFSGSGSGTDFTLTISSLQPEDAATYYCQHSREFPWTFGGGTKVEIKRADAAPGGGGSGGGGSGGGGSEVQLVESGGGDVKPGGSLRLSCAASGFTFSNYGMHWVRQAPEKGLEWVSYISSGSSTIYYADSVKGRFTISRDNSKNTLYLQMNSLRAEDTAVYYCARRGLLLDYWGQGTTVTVSSASTKGPSVFPLAPLESSGSDIQMTQSPSSLSASLGDRATITCRASKTVSTSSYSYMHWYQQKPGQPPKLLIKYASYLESGVPSRFSGSGSGTDFTLTISSLQPEDAATYYCQHSREFPWTFGGGTKVEIKRADAAPGGGGSGGGGSGGGGSEVQLVESGGGDVKPGGSLRLSCAASGFTFSNYGMHWVRQAPEKGLEWVSYISSGSSTIYYADSVKGRFTISRDNSKNTLYLQMNSLRAEDTAVYYCARRGLLLDYWGQGTTVTVSS
modifications: Variant 15
With B6, the “nuclear penetration relative to the yeast prototype (histogram of cell counts versus nuclear staining intensity)” value in experiment [2] was “notable right shift and narrowing of distributions”. Further, the “cell viability / toxicity” value in experiment [4] is on record as “killed by the variants”; in experiment [5] it was “not toxic”. Besides, in experiment [6], the cell viability result was “reductions in cell viability”. Moreover, in experiment [3], the “mean number … per cell” value was “increased the number of foci”.
